Assays:
Assay in all cases: SPOT array
[1] = target: T1, Abp1, P15891; details: median of control spots 935
T1 sequence (P15891 535-592, looked up): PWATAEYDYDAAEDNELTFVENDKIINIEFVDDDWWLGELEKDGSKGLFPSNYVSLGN

[2] = target: T2, Bbc1, P47068; details: median of control spots 796
T2 sequence (P47068 1-78, looked up): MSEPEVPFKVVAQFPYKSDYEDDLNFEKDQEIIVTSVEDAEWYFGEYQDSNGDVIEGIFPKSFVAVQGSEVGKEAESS

[3] = target: Bem1-1, P29366; details: median of control spots 4282
[4] = target: Bem1-2, P29366; details: median of control spots 4347
[5] = target: T3, Boi1, P38041; details: median of control spots 1162
T3 sequence (P38041 1-86, looked up): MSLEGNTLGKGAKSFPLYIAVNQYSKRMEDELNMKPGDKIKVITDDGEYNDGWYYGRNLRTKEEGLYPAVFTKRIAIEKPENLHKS

[6] = target: T4, Boi2, P39969; details: median of control spots 1161
T4 sequence (P39969 32-116, looked up): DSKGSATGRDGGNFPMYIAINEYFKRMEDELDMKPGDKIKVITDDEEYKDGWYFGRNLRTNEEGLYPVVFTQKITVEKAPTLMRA

[7] = target: T5, Bud14, P27637; details: median of control spots 956
T5 sequence (P27637 247-328, looked up): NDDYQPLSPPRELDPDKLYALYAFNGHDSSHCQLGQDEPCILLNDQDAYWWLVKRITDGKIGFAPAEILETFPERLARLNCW

[8] = target: T6, Bzz1-1, P38822; details: median of control spots 4446
T6 sequence (P38822 478-572, looked up): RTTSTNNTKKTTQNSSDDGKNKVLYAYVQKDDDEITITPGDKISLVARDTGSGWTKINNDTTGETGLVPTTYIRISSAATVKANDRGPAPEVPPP

[9] = target: T7, Bzz1-2, P38822; details: median of control spots 4538
T7 sequence (P38822 568-633, looked up): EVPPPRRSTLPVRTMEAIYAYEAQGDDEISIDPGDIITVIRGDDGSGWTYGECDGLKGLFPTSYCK

[10] = target: T8, Cdc25, P04821; details: median of control spots 969
T8 sequence (P04821 50-136, looked up): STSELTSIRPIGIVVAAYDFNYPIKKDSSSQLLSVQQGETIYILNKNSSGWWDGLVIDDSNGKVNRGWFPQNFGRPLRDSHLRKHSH

[11] = target: T9, Cyk3, Q07533; details: median of control spots 1451
T9 sequence (Q07533 1-83, looked up): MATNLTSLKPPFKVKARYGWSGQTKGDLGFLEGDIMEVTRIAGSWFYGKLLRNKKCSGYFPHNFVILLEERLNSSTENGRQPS

[12] = target: T10, Fus1, P11710; details: median of control spots 1200
T10 sequence (P11710 432-512, looked up): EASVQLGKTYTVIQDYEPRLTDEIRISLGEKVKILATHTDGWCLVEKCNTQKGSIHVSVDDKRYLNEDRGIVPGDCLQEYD

[13] = target: GST; details: median of control spots 978
[14] = target: T11, Hof1, Q05080; details: median of control spots 4086
T11 sequence (Q05080 590-669, looked up): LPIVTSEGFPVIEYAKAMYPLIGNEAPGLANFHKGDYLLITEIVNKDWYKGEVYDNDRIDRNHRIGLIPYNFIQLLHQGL

[15] = target: T12, Hse1, P38753; details: median of control spots 1727
T12 sequence (P38753 208-285, looked up): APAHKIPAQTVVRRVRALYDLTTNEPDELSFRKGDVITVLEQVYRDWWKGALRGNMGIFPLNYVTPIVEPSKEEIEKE

[16] = target: T13, Lsb1, P53281; details: median of control spots 388
T13 sequence (P53281 45-122, looked up): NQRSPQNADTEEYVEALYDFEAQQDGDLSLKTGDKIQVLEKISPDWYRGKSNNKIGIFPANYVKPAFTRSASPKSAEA

[17] = target: T14, Lsb3, P43603; details: median of control spots 406
T14 sequence (P43603 385-451, looked up): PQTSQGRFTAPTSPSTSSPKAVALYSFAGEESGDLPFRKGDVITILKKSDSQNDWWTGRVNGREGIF

[18] = target: T15, Lsb4, P32793; details: median of control spots 397
T15 sequence (P32793 402-468, looked up): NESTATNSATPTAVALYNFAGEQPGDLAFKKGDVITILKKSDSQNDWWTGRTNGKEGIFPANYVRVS

[19] = target: Myo3, P36006; details: median of control spots 468
[20] = target: T16, Myo5, Q04439; details: median of control spots 471
T16 sequence (Q04439 1072-1160, looked up): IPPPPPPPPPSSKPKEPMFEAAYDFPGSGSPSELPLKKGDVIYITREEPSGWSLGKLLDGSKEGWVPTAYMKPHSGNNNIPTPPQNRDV

[21] = target: T17, Nbp2, Q12163; details: median of control spots 357
T17 sequence (Q12163 103-180, looked up): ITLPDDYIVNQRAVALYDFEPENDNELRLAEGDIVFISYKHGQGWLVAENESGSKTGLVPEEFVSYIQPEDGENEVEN

[22] = target: T18, Pex13, P80667; details: median of control spots 1341
T18 sequence (P80667 295-386, looked up): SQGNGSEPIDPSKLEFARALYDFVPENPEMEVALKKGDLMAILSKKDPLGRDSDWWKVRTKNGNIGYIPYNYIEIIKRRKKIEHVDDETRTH

[23] = target: T19, Pin3, Q06449; details: median of control spots 2171
T19 sequence (Q06449 53-122, looked up): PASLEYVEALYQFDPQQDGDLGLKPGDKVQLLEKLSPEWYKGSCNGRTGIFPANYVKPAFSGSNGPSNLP

[24] = target: Rvs167, P39743; details: median of control spots 2707
[25] = target: Sho1, P40073; details: median of control spots 1148
[26] = target: T20, Sla1-2, P32790; details: median of control spots 712
T20 sequence (P32790 60-140, looked up): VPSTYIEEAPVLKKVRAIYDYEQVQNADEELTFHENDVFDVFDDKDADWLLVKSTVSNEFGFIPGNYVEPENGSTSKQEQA

[27] = target: T21, Sla1-3, P32790; details: median of control spots 5475
T21 sequence (P32790 344-424, looked up): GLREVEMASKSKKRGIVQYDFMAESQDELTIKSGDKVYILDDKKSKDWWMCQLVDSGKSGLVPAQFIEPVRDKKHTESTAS

Sho1, P40073, sequence (P40073 287-367): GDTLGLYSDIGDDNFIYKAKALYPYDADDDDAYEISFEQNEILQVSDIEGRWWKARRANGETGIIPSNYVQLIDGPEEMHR
Rvs167, P39743, sequence (P39743 419-482): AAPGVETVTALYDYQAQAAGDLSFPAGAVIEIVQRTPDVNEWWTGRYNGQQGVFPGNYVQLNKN
Bem1-1, P29366, sequence (P29366 55-141): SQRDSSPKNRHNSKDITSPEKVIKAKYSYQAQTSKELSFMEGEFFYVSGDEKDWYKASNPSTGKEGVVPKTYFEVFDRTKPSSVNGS
Bem1-2, P29366, sequence (P29366 139-227): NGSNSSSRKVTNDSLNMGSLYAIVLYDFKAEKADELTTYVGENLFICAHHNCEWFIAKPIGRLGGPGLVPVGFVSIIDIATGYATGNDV

Row | Binder | SPOT intensity [1] | SPOT intensity [2] | SPOT intensity [3] | SPOT intensity [4] | SPOT intensity [5] | SPOT intensity [6] | SPOT intensity [7] | SPOT intensity [8] | SPOT intensity [9] | SPOT intensity [10] | SPOT intensity [11] | SPOT intensity [12] | SPOT intensity [13] | SPOT intensity [14] | SPOT intensity [15] | SPOT intensity [16] | SPOT intensity [17] | SPOT intensity [18] | SPOT intensity [19] | SPOT intensity [20] | other results
1 | TEVPIPRRPPPPQAA | 0 | 3 | 3 | 0 | 0 | 0 | 0 | 12 | 0 | 0 | 0 | 0 | 3 | 0 | 0 | 0 | 46 | 108 | 367 | 141 | SPOT intensity [21]: 0; SPOT intensity [22]: 0; SPOT intensity [23]: 0; SPOT intensity [24]: 0; SPOT intensity [25]: 0; SPOT intensity [26]: 0; SPOT intensity [27]: 0
2 | AAAPKHAPPPVPNET | 0 | 0 | 0 | 84 | 0 | 0 | 0 | 0 | 0 | 0 | 0 | 0 | 0 | 0 | 13 | 0 | 0 | 0 | 557 | 376 | SPOT intensity [21]: 0; SPOT intensity [22]: 0; SPOT intensity [23]: 0; SPOT intensity [24]: 0; SPOT intensity [25]: 0; SPOT intensity [26]: 0; SPOT intensity [27]: 0
3 | FPGKKSPRLPHRNKK | 175 | 13 | 0 | 0 | 7 | 0 | 22 | 0 | 5 | 35 | 3 | 0 | 1 | 1 | 8 | 5 | 155 | 225 | 0 | 0 | SPOT intensity [21]: 0; SPOT intensity [22]: 16; SPOT intensity [23]: 0; SPOT intensity [24]: 314; SPOT intensity [25]: 84; SPOT intensity [26]: 0; SPOT intensity [27]: 12
4 | APKHAPPPVPNETDN | 0 | 0 | 0 | 0 | 0 | 0 | 0 | 0 | 0 | 0 | 0 | 0 | 0 | 0 | 3 | 0 | 0 | 0 | 497 | 239 | SPOT intensity [21]: 0; SPOT intensity [22]: 0; SPOT intensity [23]: 0; SPOT intensity [24]: 0; SPOT intensity [25]: 0; SPOT intensity [26]: 0; SPOT intensity [27]: 0

— article PMC2756588
